In patent US20170260284A1 (NATIONAL CANCER CENTER, published 2017):

T1: human transmembrane protein 180 (TMEM-180), endogenous on human cancer cells (human, UniProt Q14CX5 1-517)
T1 construct: Membrane protein expressed endogenously by human colon cancer lines (DLD-1 and others), brain tumor lines and colon cancer tissue; also called TMEM-180 on DLD-1 cells
T1 sequence: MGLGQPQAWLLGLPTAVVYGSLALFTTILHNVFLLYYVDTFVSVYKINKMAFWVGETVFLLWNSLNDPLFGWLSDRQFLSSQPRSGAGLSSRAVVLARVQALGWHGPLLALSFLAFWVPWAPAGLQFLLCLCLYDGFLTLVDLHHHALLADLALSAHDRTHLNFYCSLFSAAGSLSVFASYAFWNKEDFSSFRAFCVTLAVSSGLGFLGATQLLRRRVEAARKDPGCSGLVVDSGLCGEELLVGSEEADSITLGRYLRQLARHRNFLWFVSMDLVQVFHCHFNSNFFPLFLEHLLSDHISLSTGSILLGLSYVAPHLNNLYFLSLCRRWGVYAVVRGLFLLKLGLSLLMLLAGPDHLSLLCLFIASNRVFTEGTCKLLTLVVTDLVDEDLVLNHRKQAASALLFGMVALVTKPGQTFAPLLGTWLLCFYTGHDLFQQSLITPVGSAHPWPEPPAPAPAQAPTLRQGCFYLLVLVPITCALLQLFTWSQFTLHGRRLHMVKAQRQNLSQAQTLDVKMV


biological target: T1, human transmembrane protein 180 …; assay: flow cytometry, hybridoma supernatant on DLD-1 cells (selection of clones)

binding result | Binder
binds | rat IgM antibody clone 98 (anti-TMEM-180 antibody clone 98) (antibody, V domains shown, Rat IgM from hybridoma, used as culture supernatant; also called IgM 98; Anti-TMEM-180 IgM rat antibody (clone 98)) VH: QVQLKESGPGLVQPSQTLSLTCTVSGFSLTRYNVHWVRQPTGKGLEWMGVIWTGGSTDYNSALKSRLSISRDTSKSQVFLKMNSLQTEDIATYYCARDLGYWGQGVMVTVSS VL: DIVMTQTPLSLSVAIGQSASISCKSSQSLKYRDGKTYLNWVFQSPGQSPKRLIYQVSKLDSGVPDRFSGTGSETDFTLKISRVEAEDLGVYYCCQGSYSPHTFGAGTKLELK
binds | anti-TMEM-180 antibody clone 382 (rat IgG) (antibody, V domains shown, the entries appear to include a leader) VH: EVQLVESGGGLVQPGRSLKLSCAASGFTFSNYGMHWIRQAPTKGLEWVASISPSGGSTYYRDSVKGRFTISRDNAKSTLYLQMDSLRSEDTATYYCATSASITAYYYVMDAWGQGASVTVSS VL: DIVMTQSPTSMSISVGDRVTMNCKASQNVGSNVDWYQQKTGQSPKLLIYKASNRYTGVPDRFTGSGSGTDFTFTISNMQAEDLAVYYCMQSNSYPPTFGGGTKLELR
binds | anti-TMEM-180 antibody clone 1052 (rat IgM) (antibody, V domains shown, the entries appear to include a leader) VH: QVQLKESGPGLMQPSETLSLTCTVSGFSLTSNGVGWVRQPLGKGLVWMGTIWTGGGTNYNSGVQSRLSISRDTSKSQVFLKMNSLQPEDTGTYYCAREYMGFDYWGQGVMVTVSS VL: NTVMTQSPTSMFTSVGDRVTMSCKASQNVGINVGWYQQKTGQSPKRLIYWASNRDTGVPDRFTGSGSGTDFTLTISNMQAEDPAIYYCLQHNSYPRTFGGGTKLELK
binds | anti-TMEM-180 antibody clone 1105 (rat IgM) (antibody, V domains shown, the entries appear to include a leader) VH: QVQLKESGPGLMQPSETLSLTCTVSGFSLTSNGVGWVRQPLGKGLVWMGTIWSGGGTNYNSAVQSRLSITRDTSKSQVFLKMNSLQPEDTGTYYCAREEKGFAYWGQGTLVTVSS VL: NIVMTQSPTSMSTSVGDRVTMSCKASQNVGINVGWYQQKTGQSPKRLIYWASNRDTGVPDRFTGSGSGTDFTLTISNMQAEDPAIYYCLQHNSYPRAFGGGTKLELR
binds | anti-TMEM-180 antibody clone 699 (rat IgM) (antibody, V domains shown, the entries appear to include a leader) VH: QVQLQQSGAELTKPGSSVKISCKASGYTFTSYDISWIKQRPGQALEWIGAINPGSGGTGYNEKFKGKATLTVDKSSSTAFMQLSSLTPEDTAVYYCARIHGGYRYWFAYWGQGTLVTVSS VL: EIVLTQSPTTMAASPGEKVTITCRASSSVSYMHWFQQKSGTSPKPWIYDTSKLASGVPDRFSGSGSGTSYSLTISSMEAEDAATYYCLQRSSYPPTFGAGTKLELK
binds | anti-TMEM-180 antibody clone 129 (rat IgG) (antibody, V domains shown, the entries appear to include a leader) VH: QIQLVQSGPELKKPGESVKISCKASGYTFTDCALNWVKQAPGNGLKWMGWINTQTGKPTYADDFKQRFVFSLETSASTAYLQINNLNIEDTATYFCTREDYGYFDYWGQGVMVTVSS VL: DIQMTQSPPSLSASLGDKVTITCQASQNINKFIAWYQQKPGKAPRHLVHYTSTLVSGTPSRFSGSGSGRDYSFSISNVESEDIASYYCLQYDNLRTFGGGTKLELK

biological target: T1, human transmembrane protein 180 …; assay: flow cytometry on colon cancer and brain tumor cell lines

binding result | Binder
binds | anti-TMEM-180 antibody clone 212 (rat IgM) (antibody, V domains shown, Rat IgM from hybridoma; the entries appear to include a leader and no cleavage site is stated) VH: EVQLVESGGGLVQPGNSLKLSCAASGFTFSDYAMAWVRQSPKKGLEWVATIIYDGSSTYYRDSVKGRFTISRDNAKSTLYLQMDSLRSEDTATYYCATHWYWYFDFWGPGTMVTVSS VL: DIQMTQSPASLSASLGETVSIECLASEGISNDLAWYQQKSGKSPQLLIYAASRLQDGVPSRFSGSGSGTRYSLKISGMQPEDEADYFCQQSYKYPLTFGSGTKLEIK
binds | anti-TMEM-180 antibody clone 101 (rat IgM) (antibody, V domains shown, Rat IgM from hybridoma; the entries appear to include a leader and no cleavage site is stated) VH: QVQLKETGPGLVQPTQTLSITCTVSGFSLTSYYMQWVRQTPGKGLEWMGFIRSGGSTEYNSEFKSRLSISRDTSKNQVFLKMNSLKTEDTGVYYCARAFYGGYYFDYWGQGVMVTVSS VL: DIVMTQSPTSISISVGERVTMNCKASQNVGSNVDWYQQKTGQSPKLLIYKASNRYTGVPDRFTGSGSGTDFTFTISNMQAEDLAVYYCMQSNTKYTFGAGTKLELK

biological target: T1, human transmembrane protein 180 …; assay: flow cytometry, DLD-1 parent line against TMEM-180 knockout line; culture supernatant diluted two-fold
Protocol: The plate was centrifuged for 3 minutes at 440×g and 4° C. followed by removing the supernatant, adding antibody-producing hybridoma culture supernatant or antibody solution to the cell pellet at 50 μL/well and suspending therein. After allowing to react for 45 minutes on ice, the plate was washed three times with a mixture of 0.1% BSA, 2 mM EDTA and PBS at 200 μL/well. The supernatant was removed and secondary antibody was added to the cell pellet at 50 μL/well followed by suspending the cells therein. AlexaFluor 647 goat anti-rat IgG (H-L) (Life Technologies Corporation) was used for the secondary antibody after diluting 400-fold with a mixture of 0.1% BSA, 2 mM EDTA and PBS. After allowing to react for 45 minutes on ice, the plate was washed three times with a mixture of 0.1% BSA, 2 mM EDTA and PBS at 200 μL/well. […] The cells stained in this manner were measured using a flow cytometer such as the Guava easyCyte 8HT (Merck Millipore Corporation) followed by analysis of the resulting data using FlowJO (Tomy Digital Biology Co., Ltd.). […]
Flow cytometry was carried out in accordance with the procedure described in the above-mentioned section 3. […] Furthermore, antibody concentration in the hybridoma culture supernatant was measured by rat IgM-specific ELISA (Bethyl Laboratories).

binding result | Binder
binds | rat-human chimeric antibody clone 98 (antibody, V domains shown, Used as culture supernatant diluted two-fold; also called human chimeric IgG antibody) VH: QVQLKESGPGLVQPSQTLSLTCTVSGFSLTRYNVHWVRQPTGKGLEWMGVIWTGGSTDYNSALKSRLSISRDTSKSQVFLKMNSLQTEDIATYYCARDLGYWGQGVMVTVSS VL: DIVMTQTPLSLSVAIGQSASISCKSSQSLKYRDGKTYLNWVFQSPGQSPKRLIYQVSKLDSGVPDRFSGTGSETDFTLKISRVEAEDLGVYYCCQGSYSPHTFGAGTKLELK
